T1: FcγRIIa (UniProt P12318 34-317, limits assumed)
T1 construct: whole, on cells; also called FcgRIIa; Fcγ receptor IIa
T1 sequence (looked up): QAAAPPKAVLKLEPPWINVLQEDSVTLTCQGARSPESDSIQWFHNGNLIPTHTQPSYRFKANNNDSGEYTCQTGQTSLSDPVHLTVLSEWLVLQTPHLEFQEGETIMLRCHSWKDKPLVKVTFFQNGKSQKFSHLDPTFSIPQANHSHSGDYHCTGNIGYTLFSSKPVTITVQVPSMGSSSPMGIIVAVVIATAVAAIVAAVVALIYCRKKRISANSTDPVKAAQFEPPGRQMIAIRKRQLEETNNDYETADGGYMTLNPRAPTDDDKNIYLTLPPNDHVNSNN

T2: FcγRIIb (UniProt P31994 43-310, limits assumed)
T2 construct: whole, on cells; also called FcgRIIb; Fcγ receptor IIb
T2 sequence (looked up): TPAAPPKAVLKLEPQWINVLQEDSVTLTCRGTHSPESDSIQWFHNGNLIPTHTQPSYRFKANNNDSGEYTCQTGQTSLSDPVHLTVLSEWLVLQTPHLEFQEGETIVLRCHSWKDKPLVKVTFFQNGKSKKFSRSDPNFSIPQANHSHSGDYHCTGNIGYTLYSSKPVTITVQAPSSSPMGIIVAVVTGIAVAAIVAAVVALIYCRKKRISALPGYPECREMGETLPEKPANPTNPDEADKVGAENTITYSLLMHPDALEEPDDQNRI

B1: Bs3GC4 bispecific antibody (bispecific antibody, human IgG1, kappa)
heavy: not shown
light: DIQMTQSPSTLSTSVGDRVTITCRASQNILNWLAWYQQKPGNAPNLLIYKASDLQSGVPSRFSGSGSGTEFTLTISSLQPDDFATYYCQHYNSYPLTFGGGTKVEIKRTVAAPSVFIFPPSDEQLKSGTASVVCLLNNFYPREAKVQWKVDNALQSGNSQESVTEQDSKDSTYSLSSTLTLSKADYEKHKVYACEVTHQGLSSPVTKSFNRGEC
notes: Bispecific tetravalent IgG1, construct type Bs3; specificities GCA21 + GCE536; also called BsGC4
B2: Bs3GC5 bispecific antibody (bispecific antibody, human IgG1, kappa)
heavy: not shown
light: B1 light
notes: Bispecific tetravalent IgG1, construct type Bs3; specificities GCA21 + GCA7
B3: Ts1GC2a trispecific antibody (antibody, human IgG1, kappa)
heavy: not shown
light: EIVLTQSPGTLSLSPGETAILSCRASQSVSSSLLAWYQQKPGQAPRLLIYGASNRATGIRGRFSGSGSGTDFTLTISRLEPEDFVLYYCQHYGSRVTFGQGTKLEIKRTVAAPSVFIFPPSDEQLKSGTASVVCLLNNFYPREAKVQWKVDNALQSGNSQESVTEQDSKDSTYSLSSTLTLSKADYEKHKVYACEVTHQGLSSPVTKSFNRGEC
notes: Trispecific hexavalent IgG1, construct type Ts1; specificities GCE536 + GCA7 + GCB59
B4: Bs1GC2a bispecific antibody (bispecific antibody, human IgG1, kappa)
heavy: not shown
light: B3 light
notes: Bispecific tetravalent IgG1, construct type Bs1; specificities GCE536 + GCB59

Columns and labels:
[1] = target: T3, human GM-CSF (granulocyte macrophage-colony stimulating factor) (human, UniProt P04141 18-144); experiment: ELISA on GM-CSF
T3 construct: Soluble cytokine used in ELISA, SPR, TF-1 bioassay and immune complex formation; also called recombinant GM-CSF
T3 sequence (P04141 18-144 limits assumed): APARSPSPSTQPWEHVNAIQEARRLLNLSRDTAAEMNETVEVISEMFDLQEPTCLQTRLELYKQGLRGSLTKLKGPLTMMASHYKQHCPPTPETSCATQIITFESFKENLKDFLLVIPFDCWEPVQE

[2] = target: T3, human GM-CSF (granulocyte …); experiment: cell-based or functional assay
FcγRIIa [3] = target: T1, FcγRIIa; experiment: flow cytometry, TZM-bl cells expressing FcγRIIa, mAb alone (w/o GM-CSF)
Experimental: (§1) Expression of specific FcγRs was assessed by staining TZM-b1 cells with FITC-conjugated anti-CD64 (anti-FcγRI), anti-CD32 (anti-FcγRIIa and anti-FcγRIIb) and anti-CD16 (anti-FcγRIIIa) antibodies (all from BD Pharmingen). Untrasfected and transfected TZM-b1 cells were washed with staining buffer (PBS with 10% Fetal Bovine Serum and 2 mM EDTA) and seeded in 96-well-plates at a density of 50,000 cells per well. […] The LALA versions of all antibodies and a mAb with a different specificity were included as controls. Samples were incubated at 37° C. for 30 min to allow the formation of immune complexes and then cooled down to 4° C. before adding them to TZM-b1 cells for 30 min. Cells were washed twice and stained with anti-human IgG Fcγ fragment specific F(ab′)2 fragment (Jackson ImmunoResearch). Samples were analyzed on BD FACSCanto (BD Biosciences) and median intensity fluorescence was analyzed and compared between samples.
(§2) To address the engagement of Fcγ receptors, immune complexes formed between GM-CSF and multispecific antibodies were tested for their capacity to bind to TZM-b1 cells expressing FcγRIIa and FcγRIIb receptors. Multispecific antibodies were mixed with 0.05 μg/ml of GM-CSF, or staining buffer. Samples were incubated at 37° C. for 30 min to allow the formation of immune complexes and then cooled down to 4° C. before adding them to TZM-b1 cells for 30 minutes. Cells were washed twice and stained with anti-human IgG Fcγ fragment specific F(ab′)2 fragment. Samples were analyzed on BD FACSCanto (BD Biosciences) and median intensity fluorescence was analyzed and compared between samples.

FcγRIIb [4] = target: T2, FcγRIIb; experiment: flow cytometry, TZM-bl cells expressing FcγRIIb, mAb alone (w/o GM-CSF)
Experimental: as §1, §2

FcγRIIa [5] = target: T1, FcγRIIa; experiment: flow cytometry, TZM-bl cells expressing FcγRIIa, immune complex with low GM-CSF
Experimental: as §1, §2

FcγRIIb [6] = target: T2, FcγRIIb; experiment: flow cytometry, TZM-bl cells expressing FcγRIIb, immune complex with low GM-CSF
Experimental: as §1, §2

FcγRIIa [7] = target: T1, FcγRIIa; experiment: flow cytometry, TZM-bl cells expressing FcγRIIa, immune complex with high GM-CSF
Experimental: as §2

FcγRIIb [8] = target: T2, FcγRIIb; experiment: flow cytometry, TZM-bl cells expressing FcγRIIb, immune complex with high GM-CSF
Experimental: as §1, §2

FcγRIIa [9] = target: T1, FcγRIIa; experiment: flow cytometry, TZM-bl FcγRIIa cells; average ratio of binding in presence and in absence of GM-CSF
Experimental: as §2

FcγRIIb [10] = target: T2, FcγRIIb; experiment: flow cytometry, TZM-bl FcγRIIb cells; average ratio of binding in presence and in absence of GM-CSF
Experimental: as §1, §2

Row | Binder | EC50 [1] [mg/L] | IC90 less stringent conditions (50 pg/ml GM-CSF, 1,000 TF-1/well) [2] [mg/L] | IC90 more stringent conditions (500 pg/ml GM-CSF, 1,000 TF-1/well) [2] [mg/L] | IC90 stringent conditions (50 pg/ml GM-CSF, 10,000 TF-1/well) [2] [mg/L] | IC90 very stringent conditions (500 pg/ml GM-CSF, 10,000 TF-1/well) [2] [mg/L] | MFI (FcγRIIa [3]) [MFI] | MFI (FcγRIIb [4]) [MFI] | MFI (FcγRIIa [5]) [MFI] | MFI (FcγRIIb [6]) [MFI] | MFI (FcγRIIa [7]) [MFI] | MFI (FcγRIIb [8]) [MFI] | Average RATIO FcgRIIa (FcγRIIa [9]) [ratio] | Average RATIO FcgRIIb (FcγRIIb [10]) [ratio]
1 | B1 | 0.0323 | 0.00926 | 0.0975 | 0.0908 | 0.739 | 6730 | 123000 | 24500 | 137000 | 19500 | 62600 | 3.26 | 0.81
2 | B2 | 0.0418 | 0.0013 | 0.00647 | 0.00418 | 0.0103 | 1100 | 177000 | 30200 | 393000 | 468000 | 1.58e+06 | 226 | 5.58
3 | B3 | 0.0335 | 0.000265 | 0.00317 | 0.000281 | 0.00253 | 2850 | 67200 | 4130 | 136000 | 9870 | 397000 | 2.46 | 3.96
4 | B4 | 0.0162 | 0.00277 | 0.00992 | 0.0314 | 0.217 | 662 | 11800 | 9140 | 398000 | 566000 | 1.44e+06 | 435 | 77.8
